Test: yeast display, Sf9 membrane polyspecificity reagent, FACS + sequencing; frameworks hold sequencing errors
How it was run: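 Polyreactivity labels are assigned by the sorting gate from which each nanobody was recovered. The gates were low and high (top ~1%), set on anti-HA fluorescence for expression and streptavidin fluorescence for reagent binding. Before sorting, galactose-induced (36–48 hours) yeast display cells were stained for 1 hour at 4 °C with 10% biotinylated, detergent-solubilized Sf9 membrane reagent.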
With “QVQLVESGGGLVQAGGSLRLSCSASGRTFGYNAMGRYRQEPGKERELVAAINWSGASTYYADSVKGRFTISRDNAKNTVYLQMNSLKPEDTAVYYCAADYSYIYGFDYWGQGTQVTVSS” the “polyreactivity (PSR sort gate)” value was “low polyreactivity”. For “QVQLVESGGGLVQAGGSLRLSCAASGRIFSRNAMGWYRQAPGKEREFVAAISRRGTSTYYADSVKGRFTISRDNAKNTVYLQMNSLIPEDTAVYYCNAGGSPWYKPVYYRALYDYWGQGTQVTVSS”, the “polyreactivity (PSR sort gate)” value was “high polyreactivity”. For “QVQHVETGGGLVQAGGSLRLSCDASGRIFYNYVMGWYRQAPGKERELVAAISFSSGNTYYADSVKGRFTISRDNAKNSVYLQMNSLTPEDTAVYYCNADIYTWFQIGGYQYDYWGQGTQVTVSS”, the “polyreactivity (PSR sort gate)” value was “low polyreactivity”. In the case of “QVQLVESGGGLVQAGGSLRLSCAASGSTMAPYAMGWYRQAPGTERELVASINWGGTTTYYADSVKGRFTISRDNAKNTVYLQMNSLKPEDTAVYYCAALGLRWGRSGYYYEYYYWGQGTQVTVSS”, the “polyreactivity (PSR sort gate)” value is reported as “high polyreactivity”. With “QVQLVESGGGLVQAGGSLRLSCAASGSTFQSKAMGWYRQAPGKERELVAAINSGTSTYYADSVKGRFTISRDNAKNTVYLQMNSLKPEDTAVYYCAADGIWGEYYYSELGDYDYWGQGTQVTVSS” the “polyreactivity (PSR sort gate)” value was “low polyreactivity”. With “QVQLVESWAGLVQAGGSLRLSCAASGSTFSGYTMGWYRQAPGKEREFVAAISSRGGSTYYADSVKGRFTISRDNAKNTVYLHMNSLKPEDTAVYYCAAKVWARVDGRQFRMEYWGQGTQVSVSS” the “polyreactivity (PSR sort gate)” value was “high polyreactivity”. For “QVQLVESGGGLVQAGVSLRLSCAASGTFFIYAMGWYRQAPGKERELVAAITSGDITYYADSVKGRFTISRDNAKNTVYFEMNRLKPEDTAVYYCAAESYAWWDKQFLYRYDYWGQGTQVTVSS”, the “polyreactivity (PSR sort gate)” value was “low polyreactivity”. For “QVQLVESGGGLVQAGGSLRLSCAASGYLLGHYAMGWYRQATGKERELVAAISWSGGSTSYADSVKGRFTISRDKAKITFYLQMNSLKREDTAVYDCASAYYAYSRHAGGYWGQGTQVTVSS”, the “polyreactivity (PSR sort gate)” value was “low polyreactivity”. For “QVQLVESGGGLVQAGGSLRLSCAASGFIFVFNAMGWYRQAPGKERELVAAITWSAGSTYYADSVKGRFTISRDTAKKTVDLQKNSLKPEDTAVYYCAADNWPWPEKPDKSILYDYWGQGTQVTVSS”, the “polyreactivity (PSR sort gate)” value was “low polyreactivity”. For “QVQLVESGGGLVQAGGSLRLSCAASGLILGVYSMGWYRQAPGKEREFVASINYGGGSTYYADSGKGRFTISRDNAKNTVYLQMNSLKPEDTAVYYCNARSRWGGTRLYSYDYWGQGTQVTVSS”, the “polyreactivity (PSR sort gate)” value was “low polyreactivity”. With “QVQLVESGGGLVQAGGSLRLSCAASGRIFNGNAMGWYRQAPGKERELVAAISTSGGRTYYADSVKGRFTISRDNAKNTVYLQMNSLKPEDTAVYYCAARYFRRDYIDYDYWGQGTQVTVSS” the “polyreactivity (PSR sort gate)” value was “low polyreactivity”. For “QVQLVESGGGLVQAGGSLRLSCAASGSTFTAYAMGWYRQAPGKERELVADISKRSGGTYYADSVKGRFTISRDNAKNTVYLQMNSLKPEDTAVYYCGQGTQVTVSS”, the “polyreactivity (PSR sort gate)” value was “low polyreactivity”. For “QVQLVEAGGGLVQAGGSLRLTCAASVRTFTGYAMGCYRQAPGTERELVAAMTLSGGSTYYADSVKGRFTISRDNAKNTVYLQMNSLKPEDTAVFYCAAKWWHFYPYDYWGQGTQVTVSS”, the “polyreactivity (PSR sort gate)” value was “high polyreactivity”. With “QVQLVESGGGLVQAGGSLRLSCAASGSIFDGNAMGWYRQAPGKERELVAAISRRGGSTYYADSVKGRFTISRDKAKNTVYLQMNSLKPEDTAVYYCNAYLSYFDGNYWGQGTQVTVSS” the “polyreactivity (PSR sort gate)” value was “high polyreactivity”. With “QVQLVESGGGLVQAGGSLRLSCAASGSIFVSNAMGWYRQAPGKERELVAAISSGGSTNYADSVKGRFTISRDNAKNTVYLQMNSLKPEDTAVYYCAARYYGYAGRFDYWGQGTQVTVSS” the “polyreactivity (PSR sort gate)” value was “low polyreactivity”. With “QVQLVESGGGLVQPGGSLRLSCAASGFIFPSYDMGWYIQAPGKERELVAAITSDVNSYYADSVKGRFTISRDNAKNTVYLQMTSLKPEDTAFYSCNADADDYRDYQDYDYWGQGTQVTVSS” the “polyreactivity (PSR sort gate)” value was “low polyreactivity”. In the case of “QVQLVESGGGLVQAGGSLRLSCAASGSTFVTYTMGWYRQAPGKERELVAAISWSGDTTYADSVKGRFTISRDNAKNTVYLQMNSLKPEDTAVYYCAADDDWSGVEFDYWGQGTQVTVSS”, the “polyreactivity (PSR sort gate)” value is reported as “low polyreactivity”. With “QVQLVESGGGLVQAGGSLRLSCAASGRILHGYAMGWYRQAPGKERELVAAITSSGGRTYYADSVKGRFTISRDNAKNPVYLQMNSLKPEDTAVYYCAADRPAYRTGESKYDYWGQGTQVTVSS” the “polyreactivity (PSR sort gate)” value was “low polyreactivity”. With “QVQLVESGGGLVQAGGSLRLSCAASGRIFQFYTMGWYRQAPGKERELVASISSAGSTNYADSVKGRFTISRDNAKNTVYLQMNSLKPEDTAVYYCRYTYYWMGYWGQGTQVTVSS” the “polyreactivity (PSR sort gate)” value was “high polyreactivity”. In the case of “QVQLLESGGGLVQAGGSLRLSCAASGRILTGYAMGWYRQAPGKERELVASINWRGGSTYYADSVKRRFTISRDNAKNTVYLQLNSLKPEDTAVYYCAARVRVTGTYYTKYDYWGQGTQVTVSS”, the “polyreactivity (PSR sort gate)” value is reported as “high polyreactivity”. In the case of “QVQLVESGGGLVQAGGSLRLSCAASGITFRYSAMGWYRQAPGKERELVAVISTSGGSTYYADSVKGRFTISRDNAKNTVYLQMNSLKPEDTAVYYCAARYTYWGLLRYDYWGQGTQVTVSS”, the “polyreactivity (PSR sort gate)” value is reported as “high polyreactivity”.

— the nanobody polyreactivity screen of Harvey et al. (2022)
